The record followed here is patent US20120213794A1 (published 2012).

B1: AX211 IgG2 (antibody, V domains shown)
VH: QVQLLESGGGLVQPGGSLRLSCKASGYTFSRQGFTWVRQAPGKGLEWIGWIDPGNGGTRYNEKFKGKATISRDNSKNTLYLQMNSLRAEDTAVYYCARYRVGYSLDYWGQGTLVTVSS
VL: EIVLTQSPATLSLSPGERATITCRASQYVGSYLNWYQQKPGQAPRLLIYDASNRATGIPARFSGSGSGTDFTLTISSLEPEDFAVYYCQVWDSSPPVVFGGGTKVEIK
B2: AX213 IgG2 (antibody, V domains shown)
VH: B1 VH with Q1E, Q32Y, F34I, T35N, W50R, Y99A, R100N, V101D, L105F
VL: EIVLTQSPATLSLSPGERATITCRASQYVGSYLNWYQQKPGQAPRLLIYDASNRATGIPARFSGSGSGTDFTLTISSLEPEDFAVYYCQVWDSSPPVVFGGGTKVEIKR
B3: AX114 IgG2 (antibody, V domains shown)
VH: EVQLLESGGGLVQPGGSLRLSCKASGYTFSSYGMYWVRQAPGKGLEWIGWIDPGSGGTKYNEKFKGKATISRDNSKNTLYLQMNSLRAEDTAVYYCARERYGYYFDYWGQGTLVTVSS
VL: B1 VL with S31T, V98A
B4: AX212 IgG2 (antibody, V domains shown)
VH: B1 VH with R31S, Q32Y, G33S, T35S, W50Y, N55S, R59K, E62Q, K65Q, Y99Q
VL: B1 VL
B5: AX210 IgG2 (antibody, V domains shown)
VH: B1 VH with R31S, Q32Y, G33S, F34I, T35Y, E62Q, K65Q, G66S, Y99A
VL: B1 VL

Substitutions are numbered along the chain they refer to.

The target in this assay is human PCSK9 (proprotein convertase subtilisin-kexin type 9), wild type (UniProt Q8NBP7 31-692). Kind of assay: TR-FRET PCSK9-LDLR interaction inhibition.
Sequence of human PCSK9 (proprotein convertase subtilisin-kexin type 9), wild type (Q8NBP7 31-692): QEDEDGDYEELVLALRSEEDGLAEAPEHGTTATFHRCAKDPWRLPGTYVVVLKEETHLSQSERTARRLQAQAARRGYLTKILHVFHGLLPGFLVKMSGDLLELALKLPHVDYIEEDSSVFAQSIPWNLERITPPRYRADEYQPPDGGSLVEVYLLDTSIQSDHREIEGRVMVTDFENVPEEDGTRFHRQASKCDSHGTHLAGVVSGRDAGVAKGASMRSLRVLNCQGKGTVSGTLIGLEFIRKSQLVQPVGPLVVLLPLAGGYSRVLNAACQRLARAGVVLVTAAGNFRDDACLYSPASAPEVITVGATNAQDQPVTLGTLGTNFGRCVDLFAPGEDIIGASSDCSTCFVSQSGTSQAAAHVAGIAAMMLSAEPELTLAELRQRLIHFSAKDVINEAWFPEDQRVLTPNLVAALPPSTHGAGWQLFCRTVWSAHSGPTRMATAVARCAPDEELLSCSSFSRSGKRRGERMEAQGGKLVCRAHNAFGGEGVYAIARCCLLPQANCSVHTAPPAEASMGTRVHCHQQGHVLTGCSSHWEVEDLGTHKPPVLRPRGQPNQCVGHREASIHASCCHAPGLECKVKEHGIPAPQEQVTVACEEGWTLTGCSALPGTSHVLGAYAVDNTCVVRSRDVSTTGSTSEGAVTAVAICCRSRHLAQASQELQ
What is called IC50 is the point on the concentration scale where inhibition reaches its midpoint. B1: the 50% inhibitory concentration (IC50) came out at 4.8 nM.

B2 showed an IC50 of 4.9 nM. The value for B3 was 5.9 nM. To B4 belongs 3.9 nM; to B5, 4.9 nM.
